Experimental data published in US20050158302.

Molecular target: GST-NFκBp65 C418 (GST-trans-activation domain only of NFκBp65) [GST: P08515]
Sequence (P08515 whole entry, looked up, the tested form may be a part): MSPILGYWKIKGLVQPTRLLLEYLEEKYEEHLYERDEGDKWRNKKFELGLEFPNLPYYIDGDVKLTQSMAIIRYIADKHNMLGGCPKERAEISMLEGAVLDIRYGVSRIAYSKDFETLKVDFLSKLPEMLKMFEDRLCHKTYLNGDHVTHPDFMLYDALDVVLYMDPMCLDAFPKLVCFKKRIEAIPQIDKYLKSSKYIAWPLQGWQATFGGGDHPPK

B1: Cdk8 (53 kD cytosolic protein kinase of Molt-4 extracts) (protein)
chain: MDYDFKVKLSSERERVEDLFEYEGCKVGRGTYGHVYKAKRKDGKDDKDYALKQIEGTGISMSACREIALLRELKHPNVISLQKVFLSHADRKVWLLFDYAEHDLWHIIKFHRASKANKKPVQLPRGMVKSLLYQILDGIHYLHANWVLHRDLKPANILVMGEGPERGRVKIADMGFARLFNSPLKPLADLDPVVVTFWYRAPELLLGARHYTKAIDIWAIGCIFAELLTSEPIFHCRQEDIKTSNPYHHDQLDRIFNVMGFPADKDWEDIKKMPEHSTLMKDFRRNTYTNCSLIKYMEKHKVKPDSKAFHLLQKLLTMDPIKRITSEQAMQDPYFLEDPLPTSDVFAGCQIPYPKREFLTEEEPDDKGDKKNQQQQQGNNHTNGTGHPGNQDSSHTQGPPLKKVRVVPPTTTSGGLIMTSDYQRSNPHAAYPNPGPSTSQPQSSMGYSATSQQPPQYSHQTHRY
CTD phosphorylation in in vitro kinase reaction (GST-CTD substrate): kinase activity was only mildly detected in GST-NFκBp65 C418/cytosolic protein complexes
